Measurements: paper PMC3902949

Target: Saccharomyces cerevisiae Rad51 protein (S. cerevisiae) (UniProt P25454)
Assay: SEC; 10 µM Rad51 and 20 µM Rad52 fragment incubated at room temperature for 1 h, or each protein alone; Superdex 200 10/300 GL in 20 mM Hepes-KOH pH 7.5, 0.1 M KCl, 0.5 mM EDTA, 10% glycerol, 2 mM 2-mercaptoethanol; peak fractions analysed by SDS-PAGE

Chain of UniProt P25454 (P25454 whole entry, the tested form may be a part): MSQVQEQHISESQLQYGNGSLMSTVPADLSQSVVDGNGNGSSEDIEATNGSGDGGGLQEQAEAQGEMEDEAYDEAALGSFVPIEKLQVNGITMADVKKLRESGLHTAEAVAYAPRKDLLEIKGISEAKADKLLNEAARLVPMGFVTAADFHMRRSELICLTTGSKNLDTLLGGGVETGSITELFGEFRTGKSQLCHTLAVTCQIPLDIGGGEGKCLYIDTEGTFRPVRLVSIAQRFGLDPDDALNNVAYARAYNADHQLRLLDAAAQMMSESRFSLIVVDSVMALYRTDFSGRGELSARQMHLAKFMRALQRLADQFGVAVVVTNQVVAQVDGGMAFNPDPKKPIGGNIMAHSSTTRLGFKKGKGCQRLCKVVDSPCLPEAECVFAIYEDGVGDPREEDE

stoichiometry N: 1
Substance: Rad52^233–504 (C-terminal half of the Saccharomyces cerevisiae Rad52 protein) (domain or fragment)
